± gives the standard deviation of the averaged measurements.
Experiments:
hTERT-HMEC = assay: percentage of EdU-negative (G0-arrested) nuclei per well, 72 h; higher = more G0 arrest; settings: reference: sequence is the full UniProt precursor, the tested protein was the secreted form or ectodomain
MCF7 = assay: as above; settings: reference: sequence is the full UniProt precursor, the tested protein was the secreted form or ectodomain
[1] = protein concentration 0.0225 µM
[2] = protein concentration 0.018725 µM
[3] = protein concentration 0.18725 µM
[4] = protein concentration 0.02382 µM
[5] = protein concentration 0.03125 µM
[6] = protein concentration 0.2382 µM
[7] = protein concentration 0.3125 µM
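Note: secreted proteins added to cultured cells, EdU pulse at the end, nuclei found by Hoechst imaging, EdU status from nuclear versus surrounding ring intensity ratio, PBS as neutral control.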

With “MQPTGREGSRALSRRYLRRLLLLLLLLLLRQPVTRAETTPGAPRALSTLGSPSLFTTPGVPSALTTPGLTTPGTPKTLDLRGRAQALMRSFPLVDGHNDLPQVLRQRYKNVLQDVNLRNFSHGQTSLDRLRDGLVGAQFWSASVSCQSQDQTAVRLALEQIDLIHRMCASYSELELVTSAEGLNSSQKLACLIGVEGGHSLDSSLSVLRSFYVLGVRYLTLTFTCSTPWAESSTKFRHHMYTNVSGLTSFGEKVVEELNRLGMMIDLSYASDTLIRRVLEVSQAPVIFSHSAARAVCDNLLNVPDDILQLLKKNGGIVMVTLSMGVLQCNLLANVSTVADHFDHIRAVIGSEFIGIGGNYDGTGRFPQGLEDVSTYPVLIEELLSRSWSEEELQGVLRGNLLRVFRQVEKVREESRAQSPVEAEFPYGQLSTSCHSHLVPQNGHQATHLEVTKQPTNRVPWRSSNASPYLVPGLVAAATIPTFTQWLC [Q9H4B8]” the “percentage of EdU-negative” value (hTERT-HMEC; [1]) was 5.33 ± 1.2%, the “percentage of EdU-negative” value (hTERT-HMEC; protein concentration 0.225 µM) was 5.49 ± 1.1% and the “percentage of EdU-negative” value (MCF7; [1]) was 26.5 ± 1.8%. For the same sequence, the “percentage of EdU-negative” value (MCF7; protein concentration 0.225 µM) was 27.6 ± 3%.

With “MQQPFNYPYPQIYWVDSSASSPWAPPGTVLPCPTSVPRRPGQRRPPPPPPPPPLPPPPPPPPLPPLPLPPLKKRGNHSTGLCLLVMFFMVLVALVGLGLGMFQLFHLQKELAELRESTSQMHTASSLEKQIGHPSPPPEKKELRKVAHLTGKSNSRSMPLEWEDTYGIVLLSGVKYKKGGLVINETGLYFVYSKVYFRGQSCNNLPLSHKVYMRNSKYPQDLVMMEGKMMSYCTTGQMWARSSYLGAVFNLTSADHLYVNVSELSLVNFEESQTFFGLYKL” the “percentage of EdU-negative” value (hTERT-HMEC; [1]) was 4.44 ± 0.26%, the “percentage of EdU-negative” value (hTERT-HMEC; protein concentration 0.225 µM) was 7.46 ± 2.2% and the “percentage of EdU-negative” value (MCF7; [1]) was 25.2 ± 0.97%. For the same sequence, the “percentage of EdU-negative” value (MCF7; protein concentration 0.225 µM) was 29 ± 2.4%.

For “MQRGAALCLRLWLCLGLLDGLVSGYSMTPPTLNITEESHVIDTGDSLSISCRGQHPLEWAWPGAQEAPATGDKDSEDTGVVRDCEGTDARPYCKVLLLHEVHANDTGSYVCYYKYIKARIEGTTAASSYVFVRDFEQPFINKPDTLLVNRKDAMWVPCLVSIPGLNVTLRSQSSVLWPDGQEVVWDDRRGMLVSTPLLHDALYLQCETTWGDQDFLSNPFLVHITGNELYDIQLLPRKSLELLVGEKLVLNCTVWAEFNSGVTFDWDYPGKQAERGKWVPERRSQQTHTELSSILTIHNVSQHDLGSYVCKANNGIQRFRESTEVIVHENPFISVEWLKGPILEATAGDELVKLPVKLAAYPPPEFQWYKDGKALSGRHSPHALVLKEVTEASTGTYTLALWNSAAGLRRNISLELVVNVPPQIHEKEASSPSIYSRHSRQALTCTAYGVPLPLSIQWHWRPWTPCKMFAQRSLRRRQQQDLMPQCRDWRAVTTQDAVNPIESLDTWTEFVEGKNKTVSKLVIQNANVSAMYKCVVSNKVGQDERLIYFYVTTIPDGFTIESKPSEELLEGQPVLLSCQADSYKYEHLRWYRLNLSTLHDAHGNPLLLDCKNVHLFATPLAASLEEVAPGARHATLSLSIPRVAPEHEGHYVCEVQDRRSHDKHCHKKYLSVQALEAPRLTQNLTDLLVNVSDSLEMQCLVAGAHAPSIVWYKDERLLEEKSGVDLADSNQKLSIQRVREEDAGRYLCSVCNAKGCVNSSASVAVEGSEDKGSMEIVILVGTGVIAVFFWVLLLLIFCNMRRPAHADIKTGYLSIIMDPGEVPLEEQCEYLSYDASQWEFPRERLHLGRVLGYGAFGKVVEASAFGIHKGSSCDTVAVKMLKEGATASEHRALMSELKILIHIGNHLNVVNLLGACTKPQGPLMVIVEFCKYGNLSNFLRAKRDAFSPCAEKSPEQRGRFRAMVELARLDRRRPGSSDRVLFARFSKTEGGARRASPDQEAEDLWLSPLTMEDLVCYSFQVARGMEFLASRKCIHRDLAARNILLSESDVVKICDFGLARDIYKDPDYVRKGSARLPLKWMAPESIFDKVYTTQSDVWSFGVLLWEIFSLGASPYPGVQINEEFCQRLRDGTRMRAPELATPAIRRIMLNCWSGDPKARPAFSELVEILGDLLQGRGLQEEEEVCMAPRSSQSSEEGSFSQVSTMALHIAQADAEDSPPSLQRHSLAARYYNWVSFPGCLARGAETRGSSRMKTFEEFPMTPTTYKGSVDNQTDSGMVLASEEFEQIESRHRQESGFSCKGPGQNVAVTRAHPDSQGRRRRPERGARGGQVFYNSEYGELSEPSEEDHCSPSARVTFFTDNSY”, the “percentage of EdU-negative” value (hTERT-HMEC; [2]) was 5.19 ± 0.73%, the “percentage of EdU-negative” value (hTERT-HMEC; [3]) was 6.63 ± 1.2% and the “percentage of EdU-negative” value (MCF7; [2]) was 25.2 ± 1.4%. For the same sequence, the “percentage of EdU-negative” value (MCF7; [3]) was 25.66 ± 0.24%.

“MQRLCVYVLIFALALAAFSEASWKPRSQQPDAPLGTGANRDLELPWLEQQGPASHHRRQLGPQGPPHLVADPSKKQGPWLEEEEEAYGWMDFGRRSAEDEN” was tested, and the “percentage of EdU-negative” value (hTERT-HMEC; [4]) was 4.78 ± 0.41%, the “percentage of EdU-negative” value (hTERT-HMEC; [5]) was 4.9 ± 0.48% and the “percentage of EdU-negative” value (hTERT-HMEC; [6]) was 7.18 ± 0.61%. For the same sequence, the “percentage of EdU-negative” value (hTERT-HMEC; [7]) was 10.5 ± 2%, the “percentage of EdU-negative” value (MCF7; [4]) was 24.94 ± 0.082% and the “percentage of EdU-negative” value (MCF7; [5]) was 29.3 ± 0.76%. The “percentage of EdU-negative” value (MCF7; [6]) was 27.1 ± 1.1% and the “percentage of EdU-negative” value (MCF7; [7]) was 26.7 ± 1.6%.

For “MQRLRWLRDWKSSGRGLTAAKEPGARSSPLQAMRILQLILLALATGLVGGETRIIKGFECKPHSQPWQAALFEKTRLLCGATLIAPRWLLTAAHCLKPRYIVHLGQHNLQKEEGCEQTRTATESFPHPGFNNSLPNKDHRNDIMLVKMASPVSITWAVRPLTLSSRCVTAGTSCLISGWGSTSSPQLRLPHTLRCANITIIEHQKCENAYPGNITDTMVCASVQEGGKDSCQGDSGGPLVCNQSLQGIISWGQDPCAITRKPGVYTKVCKYVDWIQETMKNN [Q9UBX7]”, the “percentage of EdU-negative” value (hTERT-HMEC; [1]) was 5.31 ± 0.64%, the “percentage of EdU-negative” value (hTERT-HMEC; protein concentration 0.225 µM) was 6.15 ± 0.74% and the “percentage of EdU-negative” value (MCF7; [1]) was 27.509 ± 0.019%. The “percentage of EdU-negative” value (MCF7; protein concentration 0.225 µM) was 25.5 ± 1.5%.

With “MQRVSGLLSWTLSRVLWLSGLSEPGAARQPRIMEEKALEVYDLIRTIRDPEKPNTLEELEVVSESCVEVQEINEEEYLVIIRFTPTVPHCSLATLIGLCLRVKLQRCLPFKHKLEIYISEGTHSTEEDINKQINDKERVAAAMENPNLREIVEQCVLEPD [Q9H5X1]” the “percentage of EdU-negative” value (hTERT-HMEC; [1]) was 5.26 ± 0.84%, the “percentage of EdU-negative” value (hTERT-HMEC; protein concentration 0.225 µM) was 5.56 ± 0.12% and the “percentage of EdU-negative” value (MCF7; [1]) was 24.6 ± 0.36%. The “percentage of EdU-negative” value (MCF7; protein concentration 0.225 µM) was 26.4 ± 0.66%.

Source: the supplement of paper PMC11316812
